Reference: article PMC12700550, “DLL4^+ neutrophils promote Notch1-mediated endothelial PANoptosis to exacerbate acute lung injury in sepsis” (The Journal of Clinical Investigation, 2025)
Several values for one entry are separate records, joined by “and”; a condition that tells them apart may be missing. Identical values can stand only once.

B1: eCIRP: extracellular cold-inducible RNA-binding protein; recombinant murine, produced in our laboratory (protein, UniProt P60824 1-172, looked up)
Cold-inducible RNA-binding …: MASDEGKLFVGGLSFDTNEQALEQVFSKYGQISEVVVVKDRETQRSRGFGFVTFENIDDAKDAMMAMNGKSVDGRQIRVDQAGKSSDNRSRGYRGGSAGGRGFFRGGRSRGRGFSRGGGDRGYGGGRFESRSGGYGGSRDYYASRSQGGSYGYRSSGGSYRDSYDSYATHNE

How the values were obtained:
[1] = tested on: IL-6; assay: Lung IL-6 mRNA, CLP mice; type: in vivo, mouse; conditions: 20 h; for lung IL-6 mRNA (Figure 6G): 10 mg/kg NDI, vs sham, individual mice
Procedure: Sepsis was induced in mice by cecal ligation and puncture (CLP) as described previously ([45], [46]). Mice were anesthetized with isoflurane to a surgical plane and placed in a supine position. CLP was performed through a midline laparotomy. The abdomen was shaved and disinfected. Through a 2 cm midline incision, the cecum was exposed and then ligated with a 4-0 silk suture 1 cm proximal from the distal cecal extremity. For 20-hour CLP experiments, the cecum was punctured twice with a 22-gauge needle. A small amount of cecal content was extruded through both holes, and the ligated cecum was returned to the peritoneal cavity. The wound was closed in layers. For 10-day sepsis survival studies, the cecum was punctured once with a 22-gauge needle. A small amount of cecal content was extruded. Mice were allocated to the vehicle and adoptive transfer of DLL4^+ neutrophils or DLL4^– neutrophils groups. Adoptive transfer mice received a retro-orbital injection of 1 × 10^6 cells per mouse DLL4^+ neutrophils or DLL4^– neutrophils in […] phosphate-buffered saline (PBS) immediately after abdominal closure in both the 20-hour experiments and the survival study. Vehicle groups received an equivalent volume of PBS, while treatment groups received NDI 10 mg/kg in […] PBS via retro-orbital injection after CLP. This dose was chosen primarily on the basis of our laboratory’s prior experience, we have consistently used this dose in mouse CLP models with reproducible efficacy and without observable toxicity ([39], [44]). Sham-operated animals underwent a laparotomy without CLP. After closure, the mice received a subcutaneous injection of 0.5 mL of normal saline to overcome surgery-induced dehydration. For 20-hour experiments, animals were not injected with antibiotics; however, for survival studies, animals were given 0.5 mg per kg body weight imipenem (lot 4D21K05, WG Critical Care LLC) subcutaneously in 0.5 mL saline once at the end of CLP. All mice were subcutaneously injected with a single dose of 0.1 mg/kg buprenorphine after CLP. […]

[2] = tested on: DLL4 expression on TLR4^–/– BMDNs; assay: Frequency of DLL4^+ neutrophils, TLR4^–/– mouse BMDNs, flow cytometry; type: cell-based; conditions: 12 h
Procedure: Male 8-week-old C57BL/6 mice were purchased from Charles River Laboratories. TLR4^–/– mice were obtained from Kevin Tracey (Feinstein Institutes for Medical Research). Mice were housed at approximately 23°C with a 12-hour light/12-hour dark cycle and given standard laboratory food and water ad libitum. All experiments were performed following the NIH guidelines for experimental animals. The animal protocol was approved by the Feinstein Institutes’ Institutional Animal Care and Use Committee. Animals were randomly assigned to the sham, vehicle, or adoptive transfer groups.
Mice were anesthetized by 2% isoflurane inhalation, and the femora and tibiae were dissected. […] The purity of the sorted neutrophils was assessed by staining of the cells with APC-Ly6G antibody (clone 1A8, BioLegend) using a BD LSRFortessa flow cytometer (BD Biosciences).
In the time course experiments, BMDNs (1 × 10^6) were stimulated with eCIRP (1 μg/mL) for 2, 4, 6, and 12 hours. […] Single-cell suspensions were then stained with APC-conjugated anti–mouse Ly6G (clone 1A8, catalog 127614, BioLegend) and PE-conjugated anti-DLL4 (clone HMD4-1, catalog 130807, BioLegend), and analyzed by flow cytometry (BD LSRFortessa, BD Biosciences) to detect DLL4^+ neutrophils (Ly6G^+DLL4^+). […] The isolated lung cells were counted using a microscope (Eclipse TS100, Nikon). […]

[3] = tested on: DLL1; assay: DLL1 mRNA in eCIRP-treated BMDNs, qPCR; type: cell-based, mouse; conditions: for DLL1 mRNA: DLL1-CIRP
Procedure: mRNA was extracted from lung tissues with TRIzol reagent (Invitrogen, Thermo Fisher Scientific). An equal amount ([…]) of mRNA was reverse-transcribed into cDNA using the reverse transcriptase enzyme (Invitrogen, Thermo Fisher Scientific). qPCR was performed from the diluted cDNA templates with forward and reverse primers (Supplemental Table 4) and SYBR Green PCR Master Mix (Applied Biosystems, Thermo Fisher Scientific) using an Applied Biosystems 7300 real-time PCR machine. Mouse β-actin served as an internal control gene for normalization. Relative expression of mRNA was represented as fold change in comparison with the sham group.
BMDNs (1 × 10^6) were treated with eCIRP (1 μg/mL) for 12 hours, and DLL1, DLL3, and DLL4 were analyzed by qPCR.

| Molecule | effect on lung IL-6 mRNA ([1]; DLL4^+ neutrophil-injected CLP mice, 10 mg/kg) | lung IL-6 mRNA (Figure 6G) ([1]; DLL4^+ neutrophils + CLP) | lung IL-6 mRNA (Figure 6G) ([1]; DLL4^– neutrophils + CLP) | frequency of DLL4^+ neutrophils (Figure 1E) ([2]; TLR4^–/– (KO) BMDNs, 1 μg/mL eCIRP, individual replicates) | eCIRP-mediated induction of DLL4^+ neutrophils ([2]; TLR4^–/– neutrophils, 1 μg/mL) | effect on DLL1 expression ([3]; BMDNs, eCIRP 1 μg/mL, 12 h) | DLL1 mRNA ([3]; replicate 1) | DLL1 mRNA ([3]; replicate 2) | DLL1 mRNA ([3]; replicate 3) | DLL1 mRNA ([3]; replicate 4) | DLL1 mRNA ([3]; replicate 5) | DLL1 mRNA ([3]; replicate 6) | DLL1 mRNA ([3]; replicate 7) | DLL1 mRNA ([3]; replicate 8) |
| --- | --- | --- | --- | --- | --- | --- | --- | --- | --- | --- | --- | --- | --- | --- |
| ECAGSPCHNGGTCEDGI [NDI] | significantly decreased the mRNA expression of TNF-α, IL-6, and KC in lung tissues | 1.4984 fold change and 1.1005 fold change and 1.349 fold change and 4.056 fold change and 2.97 fold change and 2.032 fold change and 0.08381 fold change and 1.663 fold change and 5.861 fold change and 2.132 fold change and 6.132 fold change | 2.369 fold change and 4.979 fold change and 4.806 fold change and 5.561 fold change and 5.531 fold change and 4.244 fold change and 1.214 fold change and 2.2297 fold change and 4.655 fold change | – | – | – | – | – | – | – | – | – | – | – |
| B1 | – | – | – | 1.63% and 1.97% and 2.11% and 0.98% and 0.25% and 1.21% | significantly abrogated in TLR4^–/– neutrophils | no significant induction of DLL1 or DLL3 | 0.838 | 0.9002 | 1.276 | 1.001 | 0.5711 | 0.6454 | 0.3425 | 0.4208 |
